Laboratory results published in US20240307507A1, “LACTOFERRIN COMPOSITIONS AND METHODS OF USE” (LACTEA THERAPEUTICS LLC, priority 2021, published 2024).

Legend:
[1] = ELISA antibody binding of Lactoferrin; details: same amount of protein by weight loaded
Method: Lactoferrin percentage can be assessed by an enzyme-linked immunosorbent assay (ELISA). In some instances, an ELISA can distinguish the percentage of Lactoferrin in a native protein conformation, such as by using an antibody that specifically binds the native protein conformation of Lactoferrin.
Lactoferrin purity was also assessed by ELISA.

[2] = tested on: ECM of primary buccal cells; experiment: Lactoferrin ECM association by immunofluorescence, primary buccal cells; format: cell-based; details: 100 ug/mL, 1 hr, 37 C
Method: Primary buccal cells were next cultured according to a standard protocol (e.g., see Russo et al. Cytotechnology. 2016 October; 68(5): 2105-2114; herein incorporated by reference for all purposes). […] Immunofluorescence imaging was performed as previously described.

SARS-COV-2 = SARS-COV-2 Cytopathic Effect (CPE) reduction assay in Vero E6 cells; format: cell-based; details: Vero E6 cells, neutral red, three days post-infection
[3] = Differential Scanning Calorimetry (DSC) unfolding of apolactoferrin and hololactoferrin forms; format: physicochemical
Method: The assay was also performed with heat-treated API-E2 Lactoferrin. API-E2 Lactoferrin was heated across a range of 50-100° C.

[4] = DSC iron binding capability with excess iron chloride; details: iron chloride in 1000× molar excess
Method: The DSC assay was further used to assess Lactoferrin bioactivity, specifically the iron binding capability of the API-E2 Lactoferrin. Iron chloride (FeC13) was added in 1000× molar excess to API-E2 Lactoferrin. In the presence of excess iron, the API-E2 lactoferrin will bind the iron to its open iron binding site.

[5] = tested on: Salivary bacteria (including Lactobacillus, Lactococcus, and Streptococcus mutans); experiment: Salivary bacteria acid production by pH testing; format: cell-based; details: with sucrose, start pH 7, entire 6 hour period
Method: Salivary bacteria (including Lactobacillus, Lactococcus, and Streptococcus mutans) produce acid during growth. This acidification is strongly associated with tooth decay, particularly when it results in pH below 5.5, which is a clinically relevant threshold. A slurry of these bacteria were treated with sucrose to stimulate growth, as well as varying concentrations of API-E2 lactoferrin. Upon the addition of sucrose and API-E2 lactoferrin, the pH was adjusted to 7 through a titration and the change in pH was subsequently monitored over the next 6 hours.

E. coli = experiment: Zone of inhibition test; format: cell-based
Method: A zone of inhibition test was performed to assess bioactivity of API-E2 Lactoferrin. A plate with E. coli was cultured with 100 μg/mL, 10 μg/mL, 1 μg/mL, and 0.1 μg/mL API-E2 Lactoferrin added to paper circles and allowed to diffuse out.

lactoperoxidase (LPO) = experiment: Enzymatic colour assay for lactoperoxidase (LPO) activity; format: biochemical; details: colorimetric peroxidase substrate turning blue
Source text: An enzymatic assay for lactoperoxidase (LPO) activity was developed utilizing a molecule which in the presence of peroxidase activity turns a blue color.

B1: API-E2: purified bovine lactoferrin from raw, untreated milk produced according to Example 1 (protein)
chain: APRKNVRWCTISQPEWFKCRRWQWRMKKLGAPSITCVRRAFALECIRAIAEKKADAVTLDGGMVFEAGRDPYKLRPVAAEIYGTKESPQTHYYAVAVVKKGSNFQLDQLQGRKSCHTGLGRSAGWIIPMGILRPYLSWTESLEPLQGAVAKFFSASCVPCIDRQAYPNLCQLCKGEGENQCACSSREPYFGYSGAFKCLQDGAGDVAFVKETTVFENLPEKADRDQYELLCLNNSRAPVDAFKECHLAQVPSHAVVARSVDGKEDLIWKLLSKAQEKFGKNKSRSFQLFGSPPGQRDLLFKDSALGFLRIPSKVDSALYLGSRYLTTLKNLRETAEEVKARYTRVVWCAVGPEEQKKCQQWSQQSGQNVTCATASTTDDCIVLVLKGEADALNLDGGYIYTAGKCGLVPVLAENRKSSKHSSLDCVLRPTEGYLAVAVVKKANEGLTWNSLKDKKSCHTAVDRTAGWNIPMGLIVNQTGSCAFDEFFSQSCAPGADPKSRLCALCAGDDQGLDKCVPNSKEKYYGYTGAFRCLAEDVGDVAFVKNDTVWENTNGESTADWAKNLNREDFRLLCLDGTRKPVTEAQSCHLAVAPNHAVVSRSDRAAHVKQVLLHQQALFGKNGKNCPDKFCLFKSETKNLLFNDNTECLAKLGGRPTYEEYLGTEYVTAIANLKKCSTSPLLEACAFLTR
[1]
  increase in antibody binding relative to existing research standards: 30%
[2]
  ECM association of Lactoferrin: strong binding along the ECM
SARS-COV-2
  EC50: 90 nM
[3]; 10 mg/mL
  Delta H, apolactoferrin peak: 111.4 ± 2.2 kcal/mol
  Delta H, hololactoferrin peak: 151.2 ± 1.72 kcal/mol
[3]; native sample without added iron
  % of Total, apolactoferrin: 91.26 +/− 1.39% ^
[4]
  available Apolactoferrin shifted to the Hololactoferrin form: 100%
[5]; 1 mg/mL
  pH maintained over testing period: above 5.5
[5]; 10 mg/mL
  pH maintained over testing period: above 5.5
E. coli; 0.1 μg/mL on paper circles
  zone of inhibition: No zone of inhibition
E. coli; 1 μg/mL on paper circles
  zone of inhibition: limited zone of inhibition
E. coli; 10 ug/mL on paper circles
  zone of inhibition: complete inhibition
E. coli; 100 μg/mL on paper circles
  zone of inhibition: complete inhibition
Lactoperoxidase (LPO)
  LPO enzymatic activity in the sample: neither detected

B2: heat-treated API-E2 Lactoferrin: API-E2 Lactoferrin heated across a range of 50-100° C. (protein, UniProt P24627 20-708, looked up)
Lactotransferrin: B1 chain
modifications: heat-treated
[3]; same conditions as API-E2
  DSC apolactoferrin and hololactoferrin peaks detected: loss in both detectable peaks

B3: Lactoferrin (“Reagent”): purchased laboratory reagent grade Lactoferrin [Sigma Bovine Colostrum Lactoferrin] (protein, UniProt P24627 20-708, looked up)
Lactotransferrin: B1 chain
[2]
  ECM association of Lactoferrin: only limited ECM association
SARS-COV-2
  EC50: 140 nM
[3]
  estimated ratio of the apolactoferrin to hololactoferrin peak: nearly equal
[3]; 10 mg/mL
  Tm, apolactoferrin peak: 55 C
  Tm, hololactoferrin peak: 85 C
Lactoperoxidase (LPO)
  LPO enzymatic activity in the sample: does not result in a positive enzymatic reaction
